“Also recorded” adds a separate entry of the source.
B1: NMC-204: mouse monoclonal antibody of the IgG3 isotype that binds to NMC-P2 (SEQ ID NO:2); VH SEQ ID NO:38, VL SEQ ID NO:39 (antibody, V domains shown)
VH: EVQLQESGSVLVRPGASVKLSCKASGDTLSGSWMHWAMQRPGQGLEWIGEIHLNRGTTNYNEKFKGKATVTVDTSSSTAYVDLSSLTSEDSAVYYCARSPGFAYWGQGTLVTVSA
VL: GIVMTQAAPSVPVTPGESVSISCRSSKSLLHSNGNSYLYWFLQRPGQSPQLLIYRMSNLASGVPDRFSGSGSGTAFTLRITRVEAEDVGVYYCMQHLEYPFTFGSGTKLEIK
modifications: mAb NMC-204 Heavy Chain Variable Region; mAb NMC-204 Light Chain Variable Region
B2: NMC-103: mouse monoclonal antibody of the IgG1 isotype that binds to NMC-P1 (SEQ ID NO:1); VH SEQ ID NO:36, VL SEQ ID NO:37 (antibody, V domains shown)
VH: EVQLQESGGGLVQPGGSLRLSCTTSGFTFTHYYMSWVRQPPGKALEWLGFIRNKAKGYTAEYSASVKGRFTISRDNSQSILYLQMNTLRPEDSATYYCARDIGDNWGQGTLVTVSS
VL: DIVMTQAAFSNPVTLGTSASISCRSSKNLLHSNGITYLYWYLQRPGQSPQLLISRVSNLASGVPNRFSGSESGTDFTLRISRVEAEDVGVYFCAQLLELPYTFGGGTKLEIK
modifications: mAb NMC-103 Heavy Chain Variable Region; mAb NMC-103 Light Chain Variable Region

Experiments:
[1] = target: NMC-P2 peptide (SEQ ID NO:2), amino acids 15-25 of HDM2 (Homo sapiens, UniProt Q00987); experiment: Peptide-ELISA; assay type: binding; conditions: 5 μg/ml peptide on plate, OD 450 nm
Experimental: (§1) Peptide-ELISA Methodology: 5 μg/ml of NMC-P1, NMC-P2 or NMC-P3 peptide antigen was dried onto a 96-well ELISA plate overnight. Plates were then blocked with 5% BSA in 1× phosphate-buffered saline (PBS) (100 μl/well) for 2 hours at room temperature. Microplate wells were then washed 5 times with 300 μl of ice cold 1×PBS. Appropriate dilutions of monoclonal antibodies NMC-103, NMC-204 or NMC-303 in 1% bovine serum albumin (BSA) in PBS solution were then incubated with their corresponding peptides (NMC-P1, NMC-P2 or NMC-P3, respectively) at room temperature. After 2 hours, wells were washed 5 times with 300 μl ice-cold PBS/well and 100 μl secondary antibody (HRP-labeled Goat anti-Mouse F(ab′)2 H&L cross-adsorbed secondary antibody (HRP-GaM F(ab′)2), ThermoFisher, Cat. No. A24524) diluted 1:2500 to 1:5000 in PBS-1% BSA solution were added and the incubation continued at room temperature. After 1 hour, the wells were washed again 5 times with 200 μl of ice-cold PBS and 50 μL of the TMB Substrate Solution (1-Step™ Ultra TMB-ELISA, ThermoFisher, Cat. No. 34028) were added to each well and color was allowed to develop for 30 minutes at room temperature. The reaction was stopped by addition of 50 μL of stop solution (ThermoFisher, Cat. No. SS04) to each well and absorbance of each well was read immediately for optical density (OD) at 450 nm.

[2] = system: mouse colon cancer MC-38 cells; experiment: MC-38 syngeneic mouse model of colon cancer; assay type: in vivo; conditions: for reduction in tumor volume over the same time period: 0.4 mg/kg i.p. 3 times a week for 3 weeks
Experimental: Methodology used (Syngeneic Mouse Models of lung, colon and pancreatic cancer): To investigate the anti-tumor effects of HDM2-specific antibodies on lung, colon and pancreatic tumors in vivo, three well-known syngeneic mouse models of lung, colon and pancreatic cancer were used (Sharma et al., 1999, J. Immunol. 163 (9):5020-5028; McIntyre, 2015, Bioassays 37(8):909-920; Li, et al., 2015, Sci. Rep. 5:7856). Subcutaneous tumors were prepared by implanting either mouse Lewis Lung cancer LL/2 cells (2.5×10^5 cells/mouse), mouse colon cancer MC-38 cells (5×10^5 cells/mouse) or mouse pancreatic cancer Panc-2 cells (2×10^6 cells/mouse) in the right flanks of 8-week-old female C57BL/6 mice (n=6-7). The mice were returned to their respective cages after tumor implantation. From day 7 after tumor implantation, the tumor volumes were measured 2 times/week with a digital caliper. In the case of MC-38 and Panc-2 study, treatment started when the tumors reached an average of 70-80 mm^3. In the case of LL/2 study, tumor cell inoculation and treatment were initiated simultaneously. Mice were micro-chipped and registered following tumor implantation. Tumor volume measurements and body weights were recorded and mice were randomized into groups that received: A) mAb NMC-103 at 0.4 mg/kg (3 times a week for 3 weeks), 2 mg/kg (2 times a week for 3 weeks), or 4 mg/kg (2 times a week for 3 weeks); B) NMC-204 at 0.4 mg/kg (3 times a week for 3 weeks); C) isotype control mouse IgG1 (Abcam, Cat. No. ab18447) or IgG3 (Abcam, Cat. No. ab18392) at 0.4 mg/kg (3 times a week for 3 weeks) or 4 mg/kg (2 times a week for 3 weeks); D) Gemcitabine (25 mg/kg) and nab-paclitaxel (5 mg/kg) 2 times a week for 3 weeks; or E) a combination of gemcitabine (25 mg/kg), nab-paclitaxel (5 mg/kg) and mAb NMC-103 (2 mg/kg; 2 times a week for 3 weeks) or ([…]; […]). All tumors were injected subcutaneously and all treatments were performed by intraperitoneal injection. Any mouse displaying prolonged adverse clinical signs, or with body weight loss exceeding 15% relative to body weight at day 0, was euthanized. Tumor measurements from post-treatment with HDM2-specific antibodies versus isotype control mouse antibodies versus standard of care treatment (gemcitabine and nab-paclitaxel) were made, and results are presented in FIGS. 16-19.

[3] = system: human pancreatic cancer MIAPaCa-2 cells; experiment: In vitro growth inhibition (cell count); assay type: cell-based; conditions: overnight, MIAPaCa-2 8,000 cells/well
Experimental: Methodology used: Human pancreatic cancer MIAPaCa-2 cells (8,000 cells/well) were pre-incubated with mAb NMC-103, NMC-204 and anti-Cytochrome-C antibody (Santa Cruz, Cat No. sc-13156) at 1, 5 and 10 μg/mL, respectively. Cells in the presence of one of the antibodies at various concentrations were then plated in triplicate in 96-well cell culture plates overnight. The next day, each plate well was analyzed morphologically and a picture was taken from each well using EVOS FL microscope. Cell count was also performed and the number of living cells was graphed as % of control.

[4] = target: NMC-P1 peptide (SEQ ID NO:1), amino acids 1-15 of HDM2 (Homo sapiens, UniProt Q00987); experiment: Peptide-ELISA; assay type: binding; conditions: for binding to NMC-P1 peptide: peptide-ELISA, 5 μg/ml peptide on plate, OD 450 nm
Experimental: as §1
Competition assays: As for peptide antigen binding competition experiments, […] of mAb NMC-103 was pre-incubated with 10 μl/ml of NMC-P1, NMC-P2 or NMC-P3 for 1 hour at room temperature. MAb NMC-103 was then incubated with ELISA plates coated with NMC-P1 as described above.

[5] = competition: 1 μl/ml mAb pre-incubated with 10 μl/ml peptide for 1 hour

Molecule	binding to NMC-P2 peptide [1]	reduction in tumor volume over the same time period ([2]; MC-38)	tumor volume ([2]; MC-38, 0.4 mg/kg i.p. 3 times a week for 3 weeks (NMC-204 study)) [mm^3]	tumor cells stained positively for Ki67 ([2]; MC-38 tumors, NMC-204 study, 0.4 mg/kg) [%]	growth inhibitory effect ([3]; 1 μg/mL antibody) [%]	growth inhibitory effect ([3]; 5 μg/mL antibody) [%]	growth inhibitory effect ([3]; 10 μg/mL antibody) [%]	binding to NMC-P1 peptide [4]	average tumor size ([2]; MC-38, n=5, 10 mg/kg 2 times per week, by day 12) [mm^3]	tumor reduction at 10 mg/kg compared to 0.4 mg/kg ([2]; MC-38, 10 mg/kg two times per week for three weeks vs FIG. 17)	tumor volume ([2]; MC-38 s.c. in C57BL/6, 0.4 mg/kg i.p. 3 times a week for 2.5 weeks, treated for 18 days (NMC-103 study)) [mm^3]	tumor cells stained positive for Ki67 ([2]; MC-38 tumors, immunohistochemical staining, NMC-103 study, 0.4 mg/kg) [%]	binding of mAb to plate-bound NMC-P1 after pre-incubation with NMC-P1 peptide [4, 5]	binding of mAb to plate-bound NMC-P1 after pre-incubation with NMC-P2 peptide [4, 5]	binding of mAb to plate-bound NMC-P1 after pre-incubation with NMC-P3 peptide [4, 5]
B1	bound; also recorded: strong binding	significant (p<0.005) reduction in tumor volume	1670	30	65	73	77	did not bind	–	–	–	–	–	–	–
B2	did not bind	significant (p<0.005) reduction in tumor volume	–	–	65	84	91	bound; also recorded: strong binding	210	greater tumor reduction	1268	5	abolished the binding	did not affect the binding	did not affect the binding

From patent US20220098328A1, “ANTIBODIES TO M(H)DM2/4 AND THEIR USE IN DIAGNOSING AND TREATING CANCER” (NomoCan Pharmaceuticals LLC, priority 2017, published 2022)
